Experimental data reported in patent US20230295329A1 (published 2023).

Molecular target: T1, PD-1-His protein (Cat. #10377H08H, Sino Biological) (human, UniProt Q15116 25-167)
T1 construct: Bought reagent; also called huPD-1-his; hu PD-1-his; not shown: His tag of the bought protein
Test: ELISA, PD-1-His coated, HRP goat anti-human IgG detection

T1 sequence (Q15116 25-167 limits assumed): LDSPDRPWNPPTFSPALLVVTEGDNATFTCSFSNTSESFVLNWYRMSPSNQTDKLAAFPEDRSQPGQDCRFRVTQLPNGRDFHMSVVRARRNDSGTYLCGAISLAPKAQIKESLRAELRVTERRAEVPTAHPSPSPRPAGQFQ

Row | Binder | OD value MAX
1 | H005-1 (antibody, V domains shown) VH: EVQLVESGGGLVQPGGSLRLSCAASGFTFSSYMMSWVRQAPGKGLEWVATISGGGANTYYPDSVKGRFTISRDNAKNSLYLQMNSLRAEDTAVYYCARQLYYFDYWGQGTTVTVSS VL: DIQMTQSPSSLSASVGDRVTITCLASQTIGTWLTWYQQKPGKAPKLLIYTATSLADGVPSRFSGSGSGTDFTLTISSLQPEDFATYYCQQVYSIPWTFGGGTKVEIKR | 1.21
2 | Hu32a-85.IgG4AA (antibody, V domains shown, Full-length IgG4-AA (S228P, F234A, L235A) antibody with kappa light chain) VH: EVQLVQSGAEVKKPGSSVKVSCKASDFTFTDYEIHWVKQAPGHGLEWIGLFDPETGGIVYNQKFKGKATLTADKSTSTAYMEFSSLRSEDTAVYYCTREGYNRDWYFDVWGQGTTVTVSS VL: DIVMTQTPLSLPVTPGEPASISCRSSQSLVHSTGNTYLEWYLQKPGQSPQLLIYKVSNRFSGVPDRFSGSGSGTDFTLKISRVEAEDVGVYYCFQGSHVPYTFGGGTKVEIKR | 1.26
3 | Hu23-11.IgG4AA (antibody, V domains shown, Full-length IgG4-AA (S228P, F234A, L235A) antibody with kappa light chain; LCDR1 mutant N28T (Kabat)) VH: EVQLVQSGAEVKKPGSSVKVSCKASGGTFSDYEMHWVRQAPGQGLEWMGLIDPETGGTVYNQKFKDRVTITADKSTSTAYMELSSLRSEDTAVYYCARERFSYYGSTSDWYFDVWGQGTTVTVSS VL: DIVMTQTPLSLPVTPGEPASISCRSSQSLVHSTGNTYLEWYLQKPGQSPQLLIYKVSNRFSGVPDRFSGSGSGTDFTLKISRVEAEDVGVYYCFQGSHVPYTFGGGTKVEIKR | 1.46
